Laboratory results as given in paper PMC9394431 (Cell, 2022).

Biological target: T1, α1β2γ2 GABAA receptor (Homo sapiens)
T1 chain 1: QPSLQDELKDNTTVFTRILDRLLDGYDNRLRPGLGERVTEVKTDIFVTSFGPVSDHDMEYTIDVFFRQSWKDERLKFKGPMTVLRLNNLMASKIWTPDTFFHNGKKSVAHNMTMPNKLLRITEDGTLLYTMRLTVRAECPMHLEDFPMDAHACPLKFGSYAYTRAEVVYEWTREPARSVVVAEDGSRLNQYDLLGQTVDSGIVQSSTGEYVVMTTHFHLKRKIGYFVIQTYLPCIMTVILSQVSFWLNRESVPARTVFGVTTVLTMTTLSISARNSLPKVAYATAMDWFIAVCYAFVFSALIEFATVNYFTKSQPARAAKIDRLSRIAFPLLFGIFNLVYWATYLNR
T1 chain 2: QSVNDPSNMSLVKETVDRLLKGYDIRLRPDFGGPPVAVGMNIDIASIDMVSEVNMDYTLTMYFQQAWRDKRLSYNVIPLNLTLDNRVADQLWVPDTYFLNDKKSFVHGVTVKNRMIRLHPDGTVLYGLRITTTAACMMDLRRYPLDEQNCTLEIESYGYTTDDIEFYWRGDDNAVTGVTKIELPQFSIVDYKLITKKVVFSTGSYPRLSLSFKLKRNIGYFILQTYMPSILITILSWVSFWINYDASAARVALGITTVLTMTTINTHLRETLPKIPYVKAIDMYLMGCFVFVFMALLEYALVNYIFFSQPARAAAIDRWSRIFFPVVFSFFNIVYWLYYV
T1 chain 3: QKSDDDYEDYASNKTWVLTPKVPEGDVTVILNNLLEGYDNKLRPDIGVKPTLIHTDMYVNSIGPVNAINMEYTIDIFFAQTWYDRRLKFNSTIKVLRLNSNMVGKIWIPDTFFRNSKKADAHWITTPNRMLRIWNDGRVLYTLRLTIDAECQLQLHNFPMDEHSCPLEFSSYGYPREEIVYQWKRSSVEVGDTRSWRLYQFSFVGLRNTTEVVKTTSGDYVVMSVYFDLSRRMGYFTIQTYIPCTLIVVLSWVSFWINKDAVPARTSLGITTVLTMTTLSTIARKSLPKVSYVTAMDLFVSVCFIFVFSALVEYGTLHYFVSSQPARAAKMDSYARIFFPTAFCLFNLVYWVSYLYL
Experiment: SEC

stoichiometry N: 1 Fab per receptor
B1: Fab175 (Fab, V domains shown)
VH: EVQLLESGEGLVQPGGSLRLSCAASGFTFKTYAMSWVRQAPGKGLEWVSAISGSGASTYYADFVEGRFTISRDNSKNTLYLQMNSLRAEDTAVYYCAKEPPAMVWFGGGYFDYWGQGTLVTVSS
VL: EIVLTQSPATLSLSPGERATLSCRASQSVSSYLAWYQQKPGQAPRLLIYDASNRATGIPARFSGSGSGTDFTLTISSLEPEDFAVYYCQQRSNWPPYSFGQGTKLEIK
